In experiment [1] the target is T1, B7H3 (antigen of the 'B7H3 Octet' value).
T1 construct: antigen of the Octet measurement
T1 sequence (Q5ZPR3 whole entry, species assumed, looked up): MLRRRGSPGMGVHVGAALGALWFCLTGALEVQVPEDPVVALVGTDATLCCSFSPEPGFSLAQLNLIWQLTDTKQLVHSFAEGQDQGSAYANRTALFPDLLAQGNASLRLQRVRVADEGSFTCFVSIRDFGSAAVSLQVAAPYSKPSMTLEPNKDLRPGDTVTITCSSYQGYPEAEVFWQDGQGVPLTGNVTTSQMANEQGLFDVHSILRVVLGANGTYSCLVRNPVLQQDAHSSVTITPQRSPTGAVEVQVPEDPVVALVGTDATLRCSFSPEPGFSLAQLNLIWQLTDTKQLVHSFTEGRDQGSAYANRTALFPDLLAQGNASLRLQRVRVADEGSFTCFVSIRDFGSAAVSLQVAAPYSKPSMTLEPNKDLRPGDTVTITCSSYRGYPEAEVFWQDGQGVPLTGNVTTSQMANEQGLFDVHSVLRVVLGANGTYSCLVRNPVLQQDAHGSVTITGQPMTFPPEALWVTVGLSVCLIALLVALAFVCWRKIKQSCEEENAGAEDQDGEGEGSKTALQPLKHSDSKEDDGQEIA
Nature of the experiment: Octet, monovalent affinity of the B7H3 arm; construct measured and form of B7H3 not given.

The target of experiment [2] is T2, B7 Homolog 3 (B7H3) on B78 melanoma tumor cells.
T2 construct: whole, on cells; In the PET study, tumours that were B7H3-positive and GD2-negative were also used; also called CD276; Cluster of Differentiation 276
Nature of the experiment: cell binding, RFU, B7H3 B78 cells (GD2 and human B7H3); both arms can bind.

For experiment [3], the target named is T3, mB7H3 (endogenous mouse B7H3 on B16 and B78 cells) (mouse, UniProt Q8VE98).
T3 construct: B78 also carries GD2; also called murine B7H3
T3 sequence (receptor, looked up): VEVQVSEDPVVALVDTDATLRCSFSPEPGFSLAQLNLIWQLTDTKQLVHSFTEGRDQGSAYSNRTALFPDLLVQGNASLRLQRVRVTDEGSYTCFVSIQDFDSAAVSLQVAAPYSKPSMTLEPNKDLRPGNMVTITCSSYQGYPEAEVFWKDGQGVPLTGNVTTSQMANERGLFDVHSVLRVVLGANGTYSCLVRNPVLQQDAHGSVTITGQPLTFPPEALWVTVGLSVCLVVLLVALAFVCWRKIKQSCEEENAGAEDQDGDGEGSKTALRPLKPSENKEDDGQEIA
Nature of the experiment: flow cytometry on B16 cells (no GD2, mouse B7H3), GAH PE; anti-GD2 antibody as control. (In flow cytometry, cells or beads pass a laser one at a time.)

Values joined by “and” are separate entries in the source; they are usually repeats but may differ in a detail not shown here. Equal entries are not always repeated.

B1: INV721 (bivalent bispecific anti-B7H3 x anti-GD2 antibody) (bispecific antibody, V domains shown)
VL 1: DIQMTQSPSSLSASVGDRVTITCRASQSVSSAVAWYQQKPGKAPKLLIYSASSLYSGVPSRFSGSRSGTDFTLTISSLQPEDFATYYCQQSGRSLYTFGQGTKVEIK
VH 1: EVQLVESGGGLVQPGGSLRLSCAASGFTFSTYYIHWVRQAPGKGLEWVAWIHPSGKYTYYADSVKGRFTISADTSKNTAYLQMNSLRAEDTAVYYCARHYQVGAMDYWGQGTLVTVSS
VL 2: DIQMTQSPSSLSASVGDRVTITCRSSQSLVHRNGNTYLHWYQQKPGKAPKLLIHKVSNRFSGVPSRFSGSGSGTDFTLTISSLQPEDFATYYCSQSTHVPPLTFGQGTKVEIK
VH 2: EVQLVESGGGLVQPGGSLRLSCAASGSSFTGYNMNWVRQAPGKGLEWVAAIDPYYGGTYYADSVKGRFTISADTSKNTAYLQMNSLRAEDTAVYYCASGMEYWGQGTLVTVSS
modifications: 89Zr-radiolabelled in the PET and biodistribution studies. An a-fucosylated version is used in FIG. 66.
notes: 89Zr-labelled in the in vivo PET study; also called I7-01/GD2-5/7; I7-01/GD2-7
In general, Kd refers to the free concentration of one partner at which half of the binding sites on the other are occupied at equilibrium, for simple one-to-one binding. By EC50 is commonly meant the concentration at which the effect is half-maximal. Low values mean a more potent agent, high ones a less potent agent. On to B1, for which the affinity in experiment [1], expressed as Kd, was 2.4 nM. Besides, in experiment [2], the EC50 was 0.35 nM and 0.357 nM.

B2: Invenra GD2-5 (antibody, V domains shown)
VH: B1 VH 2
VL: B1 VL 2
notes: anti-GD2 antibody; stands here only as a control on B16 cells; also called GD2-05; anti-GD2 monoclonal antibody GD2-5
As to B2, in experiment [3], the binding result is “no binding (tested: 1 ug antibody per million cells)”.
